Measurements taken from patent US20250090680A1.
Changes are numbered by the printed parent chain.

B1: P1-B9 scFv clone (scFv, part only; not given: linker, domain order, tags, V domains shown, not shown: another chain or arm of the molecule; large carriers; small tags and cut ends)
VH: QVQLVESGAEVKKPGASVKVSCKASGYTFTDYEMHWVRQAPGQGLEWMGALDPKTGDTALSQKFKGRVTLTADKSTSTAYMELSSLTSEDTAVYYCTRFYSYTYWGQGTLVTVSS
VL: DVVMTQSPLSLPVTPGEPASISCRSSQSLVHSNGNTYLQWYLQKPGQSPQLLIYKVSNRFSGVPDRFSGSGSGTDFTLKISRVEAEDVGVYYCGQVTHVPPTFGQGTKLEIK
B2: P1-A1 scFv clone (scFv, part only; not given: linker, domain order, tags, V domains shown, not shown: another chain or arm of the molecule; large carriers; small tags and cut ends)
VH: B1 VH with L60Y, K65Q
VL: B1 VL with H31R, Q39H, G94V, V96N
B3: P3-A1 scFv clone (scFv, part only; not given: linker, domain order, tags, V domains shown, not shown: another chain or arm of the molecule; large carriers; small tags and cut ends)
VH: B1 VH with K54S, L60Y
VL: B1 VL with S32W, Q39H, G94A, V96N
B4: P3-F7 scFv clone (scFv, part only; not given: linker, domain order, tags, V domains shown, not shown: another chain or arm of the molecule; small tags and cut ends)
VH: B1 VH with L60Y
VL: B1 VL with G94V
B5: P1-E6 scFv clone (scFv, part only; not given: linker, domain order, tags, V domains shown, not shown: another chain or arm of the molecule; large carriers; small tags and cut ends)
VH: B1 VH
VL: B1 VL with Q27S, Q39H, G94L, V96N, T97G, H98I
B6: P6-D11 scFv clone (scFv, part only; not given: linker, domain order, tags, V domains shown, not shown: another chain or arm of the molecule; large carriers; small tags and cut ends)
VH: B1 VH with E6Q, T58E, L60Y
VL: B1 VL with S26E, Q39H, G94V, V96N, T97G, H98L, V99F
B7: P1-D6 scFv clone (scFv, part only; not given: linker, domain order, tags, V domains shown, not shown: another chain or arm of the molecule; large carriers; small tags and cut ends)
VH: B1 VH with E6Q, K13N, K54F, L60Y
VL: B1 VL with Q39H, G94L, V96N, T97G, H98Y
B8: P1-G5 scFv clone (scFv, part only; not given: linker, domain order, tags, V domains shown, not shown: another chain or arm of the molecule; large carriers; small tags and cut ends)
VH: B1 VH with L51I, L60Y
VL: B1 VL with G94S
B9: ARD-103 antibody (IgG) (antibody, V domains shown)
VH: B1 VH with L60Y
VL: DVVMTQSPLSLPVTPGEPASISCRSSQSLVHSNGNTYLHWYLQKPGQSPQLLIYKVSNRFSGVPDRFSGSGSGTDFTLKISRVEAEDVGVYYCSQNTHVPPTFGQGTKLEIKR
B10: P1-B9 IgG variant of ARD-103 (antibody, V domains shown)
VH: B1 VH
VL: B9 VL with H39Q, S94G, N96V
B11: P1-D6 IgG variant of ARD-103 (antibody, V domains shown)
VH: B1 VH with E6Q, K13N, K54F, L60Y
VL: B9 VL with S94L, T97G, H98Y
B12: P1-G5 IgG variant of ARD-103 (antibody, V domains shown)
VH: B1 VH with L51I, L60Y
VL: B9 VL with H39Q, N96V
B13: P3-F7 IgG variant of ARD-103 (antibody, V domains shown)
VH: B1 VH with L60Y
VL: B9 VL with H39Q, S94V, N96V
B14: P6-D11 IgG variant of ARD-103 (antibody, V domains shown)
VH: B1 VH with E6Q, T58E, L60Y
VL: B9 VL with S26E, S94V, T97G, H98L, V99F
B15: P1-A1 IgG variant of ARD-103 (antibody, V domains shown)
VH: B1 VH with L60Y, K65Q
VL: B9 VL with H31R, S94V
B16: P1-E6 IgG variant of ARD-103 (antibody, V domains shown)
VH: B1 VH
VL: B9 VL with Q27S, S94L, T97G, H98I
B17: P3-A1 IgG variant of ARD-103 (antibody, V domains shown)
VH: B1 VH with K54S, L60Y
VL: B9 VL with S32W, S94A

What follows are binders tested against recombinant human GPC3 protein (R&D Systems) (human) (UniProt P51654) (assay: Octet (BLI) off-rate ranking of scFv).
Sequence of UniProt P51654 (P51654 25-559): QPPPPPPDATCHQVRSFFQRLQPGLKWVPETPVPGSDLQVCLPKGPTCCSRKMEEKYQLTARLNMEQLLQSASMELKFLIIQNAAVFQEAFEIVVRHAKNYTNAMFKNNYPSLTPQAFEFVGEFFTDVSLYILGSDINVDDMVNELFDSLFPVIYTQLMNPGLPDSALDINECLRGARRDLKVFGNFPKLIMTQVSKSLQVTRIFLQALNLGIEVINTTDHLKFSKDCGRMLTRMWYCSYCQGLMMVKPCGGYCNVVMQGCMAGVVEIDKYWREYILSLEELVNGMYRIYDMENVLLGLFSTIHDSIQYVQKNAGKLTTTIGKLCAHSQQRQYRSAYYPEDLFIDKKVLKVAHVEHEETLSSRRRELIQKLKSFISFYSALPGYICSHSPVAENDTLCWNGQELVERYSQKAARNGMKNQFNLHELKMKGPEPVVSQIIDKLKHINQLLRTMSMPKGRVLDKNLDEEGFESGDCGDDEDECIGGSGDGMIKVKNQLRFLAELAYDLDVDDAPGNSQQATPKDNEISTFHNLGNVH
In the case of B1, the koff is reported as 0.00027 s⁻¹.
In the case of B2, the koff is reported as 0.0003 s⁻¹.
Work on B3 yielded a koff of 0.000304 s⁻¹.
With B4 the koff was 0.000319 s⁻¹.
Work on B5 yielded a koff of 0.00048 s⁻¹.
Binder B6 has a koff of 0.000122 s⁻¹.
Binder B7 has a koff of 0.000193 s⁻¹.
Binder B8 has a koff of 0.000197 s⁻¹.

These binders were tested against recombinant hGPC3-His (human) (UniProt P51654) (assay: Biacore SPR, antibody captured, hGPC3-His analyte, 1:1 model).
Work on B9 yielded a Kd of 3.85 nM, a koff of 0.000185 s⁻¹ and a kon of 48100 M⁻¹ s⁻¹.
With B10 the Kd was 3.33 nM, the koff was 0.00026 s⁻¹ and the kon was 78000 M⁻¹ s⁻¹.
For B11, the Kd was 3.62 nM, the koff was 0.00033 s⁻¹ and the kon was 91300 M⁻¹ s⁻¹.
In the case of B12, the Kd is reported as 4.15 nM, the koff is reported as 0.000326 s⁻¹ and the kon is reported as 78500 M⁻¹ s⁻¹.
Work on B13 yielded a Kd of 8.46 nM, a koff of 0.000724 s⁻¹ and a kon of 85600 M⁻¹ s⁻¹.
B14 was tested, and the Kd was 3.02 nM, the fold of ka against ARD-103 was 2 fold and the koff was 0.000324 s⁻¹. For the same binder, the kon was 107000 M⁻¹ s⁻¹.
Binder B15 has a Kd of 1.56 nM, a koff of 0.000172 s⁻¹ and a kon of 110000 M⁻¹ s⁻¹.
B16 was tested, and the Kd was 3.95 nM, the koff was 0.000299 s⁻¹ and the kon was 75600 M⁻¹ s⁻¹.
With B17 the Kd was 2.38 nM, the koff was 0.000196 s⁻¹ and the kon was 82300 M⁻¹ s⁻¹.

The binders below were run against recombinant human GPC3 protein (R&D Systems) (human) (UniProt P51654) (assay: ELISA, plate-coated recombinant hGPC3, IgG detected with anti-human Fc).
Work on B10 yielded an EC50 of 0.1 nM.
B11 showed an EC50 of 0.1 nM.
B12 showed an EC50 of 0.1 nM.
With B13 the EC50 was 0.1 nM.
B14 gave an EC50 of 0.1 nM.

The binders below were run against recombinant hGPC3-His (human) (UniProt P51654) (assay: Biacore SPR, antibody captured, hGPC3-His analyte, 1:1 model; reference ARD-103 IgG).
With B14 the fold change of ka against ARD-103 was 2 fold.

Each binder was assayed against recombinant human GPC3 protein (R&D Systems) (human) (UniProt P51654) (assay: binding ELISA on plate-coated recombinant hGPC3, detection with goat anti-human Fc secondary antibody and TMB).
B9 was tested, and the EC50 was 0.11 nM.
In the case of B10, the EC50 is reported as 0.095 nM.
With B11 the EC50 was 0.11 nM.
For B12, the EC50 was 0.095 nM.
Work on B13 yielded an EC50 of 0.1 nM.
B14 showed an EC50 of 0.094 nM.
